The results in this text go back to paper PMC11363490, “Structural and biochemical characterization of cauliflower mosaic virus reverse transcriptase”.

In series [1] the target is CaMV RT RNase H mutant D421N (cauliflower mosaic virus).
The next series addresses CaMV RT (Cauliflower mosaic virus, UniProt A0A2D2PYL0 197-675). Briefly: gel filtration; 5 mM MgCl2; stable 1:1 complex; Gel filtration: 25 mM Hepes pH 7.5, 200 mM NaCl, 5% glycerol, 5 mM MgCl2, 1 mM DTT, 30 min on ice; crystals: protein in 20 mM Hepes pH 7.5, 200 mM NaCl, 5% glyc. The conditions noted are these: protein: recombinant; tags: none (N-terminal 6xHis-SUMO removed with Ulp1); 5' overhang 2 nt on RNA strand (GG), 22 bp.

Consider “cauliflower mosaic virus (CaMV) reverse transcriptase, wild type (from UniProt P03554 1-679) (enzyme)”, for which the RNase H cleavage efficiency on R40/D28, 1:1:1 mixture of wt RT:mutant RT:substrate, 120 min (against ∼18% for 1:1 wt enzyme:substrate) in series [1] turned out to be 60%.

B1: RNA-24/DNA-22 hybrid (DNA:RNA)
RNA: GGCAGUGGUCCAGCAGUGCGUAGC
DNA: GCTACGCACTGCTGGACCACTG
Consider B1, for which the binding result with CaMV RT is “binds”.
